B1: Glucocorticoid receptor, residues 419 to 494; numbered along this chain, P04150 (parent)
chain: KLCLVCSDEASGCHYGVLTCGSCKVFFKRAVEGQHNYLCAGRNDCIIDKIRRKNCPACRYRKCLQAGMNLEARKTK

± gives the uncertainty stated by the source.

The variants in this data set derive from B1. The data set can be described thus: abundance fitness (aPCA) (normalised: wild type 0, dead -1); higher = more abundant; growth selection in yeast, the domain comes from the species named. The settings on record: Homo sapiens.
KLCLVCSDEASGCHYGVLTCGSCKVFFKRAVEGQHNVLCAGRNDCIIDKIRRKNCPACRYRKCLQAGMNLEARKTK [Y37V]: the abundance fitness was -0.116 ± 0.043.
In the case of KLCLVCSDEASGCHYGVLTCGSCTVFFKRAVEGQHNYLCAGRNDCIIDKIRRKNCPACRYRKCLQAGMNLEARKTK [K24T], the abundance fitness was -0.096 ± 0.059.
As to KLCLVCSDEASGCHYGVLTCGSCKRFFKRAVEGQHNYLCAGRNDCIIDKIRRKNCPACRYRKCLQAGMNLEARKTK [V25R], the abundance fitness was 0.085 ± 0.044.
Under KLCLVCSDEASGCHYGVLTCGSCKVFFKRAVEGQHNYLCAGRNDCIIDKIWRKNCPACRYRKCLQAGMNLEARKTK [R51W] stands -0.083 ± 0.043; under KLCLVCSDEASGCHYGVLTCGSCKVFFKRAVEGQHNYLCAGRNDCIIDKIQRKNCPACRYRKCLQAGMNLEARKTK [R51Q], -0.002 ± 0.05; under KLCLVCSDEASGCHYGVLTCGSCKVFFKRAVEGQHNYICAGRNDCIIDKIRRKNCPACRYRKCLQAGMNLEARKTK [L38I], -0.043 ± 0.073.
To KLCLVCSDEASGCHYGVLTCGSCKVFFKRAVEGQHNYFCAGRNDCIIDKIRRKNCPACRYRKCLQAGMNLEARKTK [L38F] belongs 0.018 ± 0.08.
KLCLVCSHEASGCHYGVLTCGSCKVFFKRAVEGQHNYLCAGRNDCIIDKIRRKNCPACRYRKCLQAGMNLEARKTK [D8H]: the abundance fitness is -0.203 ± 0.094.
Regarding KLCLVCSCEASGCHYGVLTCGSCKVFFKRAVEGQHNYLCAGRNDCIIDKIRRKNCPACRYRKCLQAGMNLEARKTK [D8C], the abundance fitness was -0.105 ± 0.072.
As to KLCLVCSDEASGCHYNVLTCGSCKVFFKRAVEGQHNYLCAGRNDCIIDKIRRKNCPACRYRKCLQAGMNLEARKTK [G16N], the abundance fitness was determined as 0 ± 0.085.
To KLCLVCSDEASGCHYGVLTCGSCKVFFKRAVEGQHNYLCAGRNDCIIDKIRRLNCPACRYRKCLQAGMNLEARKTK [K53L] belongs -0.017 ± 0.034; to KLCLVCSDEASGCHYGVLTCGSCKVFFKRAVEGQHNYLCAGRNDCIIDKIRRKNCPACRYRKCLQAGMMLEARKTK [N69M], -0.022 ± 0.048; to KLCLVCSDEASGCHYGVLTCGSCKVFFKRAVEGQHNYLCAGRNDCFIDKIRRKNCPACRYRKCLQAGMNLEARKTK [I46F], 0.087 ± 0.068.
Consider KLCLVCSDEASGCHYGVLTCGSCKVFFKRAVEGQHNYLCAGRNDCYIDKIRRKNCPACRYRKCLQAGMNLEARKTK [I46Y], for which the abundance fitness came to 0.029 ± 0.052.
With KLCLVCSDEASGCHYGVLTCGSCKVFFKRAVEGQHNYLCAGRNDCCIDKIRRKNCPACRYRKCLQAGMNLEARKTK [I46C], the abundance fitness was -0.025 ± 0.045.
As for KLCLVCSDEASGCHYGVLTCGSCKVFFKRAVEGQHNYLCAGRNDCQIDKIRRKNCPACRYRKCLQAGMNLEARKTK [I46Q], the abundance fitness came out at 0.064 ± 0.049.
For KLCLVCSDEASGCHYGVLTCGSCKVFFKRAVEGQHNYLCAGRNDCIIDKIRRKTCPACRYRKCLQAGMNLEARKTK [N54T], the abundance fitness was -0.005 ± 0.045.
Under KLCLVCSDEASGCHYGVLTCGSCKVFFKRAVEGQHNYLCAGRNDCIIDKIRRKVCPACRYRKCLQAGMNLEARKTK [N54V] stands -0.025 ± 0.035; under KLCLVCSDEASGCHYGVLTCLSCKVFFKRAVEGQHNYLCAGRNDCIIDKIRRKNCPACRYRKCLQAGMNLEARKTK [G21L], -0.037 ± 0.037.
To KLCLVCSDEASGCHYGVLTCGSCKVFFKRAVEGQHNYLCAARNDCIIDKIRRKNCPACRYRKCLQAGMNLEARKTK [G41A] belongs -0.016 ± 0.036; to KLCLVCSDEASGCHYGVLTCGSCKVFFKRAVEGQHNYLCAGRNDCIIDKIRRKNCPACRYLKCLQAGMNLEARKTK [R61L], 0 ± 0.039; to KLCLVCSDEASGCHYGVLTCGSCKVFFKRAVEGEHNYLCAGRNDCIIDKIRRKNCPACRYRKCLQAGMNLEARKTK [Q34E], -0.051 ± 0.051.
To KLCLVCSDEASGCHYGVLTCGSCKVFFKRAVEGQHNYLCAGRNDCIIDKIRRKNCPACRYRPCLQAGMNLEARKTK [K62P] belongs -0.867 ± 0.11; to KLCLVCSDEASGCHYGVLTCGSCKVFFKRAVEGQHNYLCAGRNDCIIDKIRRKNCPACRYRKFLQAGMNLEARKTK [C63F], -0.322 ± 0.11; to KLCLVCSDEASGCHYGVLECGSCKVFFKRAVEGQHNYLCAGRNDCIIDKIRRKNCPACRYRKCLQAGMNLEARKTK [T19E], -1.03 ± 0.19.
For KLCLVCSDEASGCHYGVLNCGSCKVFFKRAVEGQHNYLCAGRNDCIIDKIRRKNCPACRYRKCLQAGMNLEARKTK [T19N], the abundance fitness was -0.557 ± 0.14.
Take KLCLVCSDEASGCHYGVLTCGSCKVFFNRAVEGQHNYLCAGRNDCIIDKIRRKNCPACRYRKCLQAGMNLEARKTK [K28N]: the abundance fitness is -0.063 ± 0.058.
Under KLCLVCSDEASGCHYGVLTCGSCKVFFIRAVEGQHNYLCAGRNDCIIDKIRRKNCPACRYRKCLQAGMNLEARKTK [K28I] stands -0.064 ± 0.078; under KLCLVCSDEASGCHYGVLTCGSCKVFFPRAVEGQHNYLCAGRNDCIIDKIRRKNCPACRYRKCLQAGMNLEARKTK [K28P], -0.243 ± 0.047; under KLCLVASDEASGCHYGVLTCGSCKVFFKRAVEGQHNYLCAGRNDCIIDKIRRKNCPACRYRKCLQAGMNLEARKTK [C6A], -0.964 ± 0.15.
To KLCLVYSDEASGCHYGVLTCGSCKVFFKRAVEGQHNYLCAGRNDCIIDKIRRKNCPACRYRKCLQAGMNLEARKTK [C6Y] belongs -0.653 ± 0.13.
For KLCLVCSDEASGCHYGVLTCGSCKVFFKRAVEGQHNYLCAGRNDCIIDKIRRKNCPACRYRKCLQAGMNGEARKTK [L70G], the abundance fitness is -0.068 ± 0.033.
Turning to KLCLVCSDEASGCHDGVLTCGSCKVFFKRAVEGQHNYLCAGRNDCIIDKIRRKNCPACRYRKCLQAGMNLEARKTK [Y15D], the abundance fitness was -0.055 ± 0.049.
KLCLVCSDEASGCHYGVLTCGSCKVFFKRAVEGQHNYLCAGRNDCIIDKIRRKNWPACRYRKCLQAGMNLEARKTK [C55W]: the abundance fitness is -0.588 ± 0.059.
Consider KLCLVCSDEASGCHYGVLTCGSCKVFFKRAVEGQHNYLCAGRNDCIIDKIRRKNSPACRYRKCLQAGMNLEARKTK [C55S], for which the abundance fitness was -0.707 ± 0.098.
To KLCKVCSDEASGCHYGVLTCGSCKVFFKRAVEGQHNYLCAGRNDCIIDKIRRKNCPACRYRKCLQAGMNLEARKTK [L4K] belongs 0.109 ± 0.044.

For the origin of these results see the Human Domainome abundance scans (Beltran et al. 2025).
